This data set relates to ATP. The data set is described as follows: switch fluorescence ratio, 500 uM ATP over buffer (Cy3 cluster intensity, sum of 5 cycles each) (fold (ratio)); higher = stronger signal-on switching upon ATP binding; sequences stand for … in TCGTCGGCAGCGTCAGATGTGTATAAGAGACAGTTTTTTTTTTTTTTTTTTTTTTTTT…TC. Conditions: aptamer strand: ATP DNA aptamer (quencher-CACCTGGGGGAGTATTGCGGAGGAAGG + anchor), 100 nM annealed; ATP concentration: 500 uM. Summed up: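 For every switch-domain sequence, the fluorescence ratio is the mean of per-cluster values, each being summed target-cycle Cy3 intensity over summed buffer-cycle Cy3 intensity. Clusters outside 100-1000 RFU were excluded. On a modified Illumina MiSeq flow-cell, the Cy3-labelled switching-strand clusters were annealed to 100 nM quencher-labelled ATP aptamer, imaged in selection buffer and then after 15 min with 500 uM ATP at 22 °C. Five such cycles were run, with NaOH stripping and re-annealing between them.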

± gives the standard deviation of the averaged measurements.
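Note: ATP exposure 15 min at 22 °C before imaging.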

Consider GAGTCATTAA, for which the switch fluorescence ratio amounted to 0.96 ± 0.041.
As to GAGTCCAGGC, the switch fluorescence ratio was determined as 1.07 ± 0.16.
Then GAGTCCCTGA, with 0.993 ± 0.032.
For the sequence GAGTCCTCTT, the switch fluorescence ratio was 1.01 ± 0.032.
Turning to GAGTCGGCGC, the switch fluorescence ratio worked out at 0.983 ± 0.1.
For GAGTCGGTTA, the switch fluorescence ratio stood at 0.98 ± 0.045.
In the case of GAGTCTCTTA it was 1 ± 0.027; in that of GAGTCTGGT, 0.981 ± 0.036; in that of GAGTGAAAGT, 0.99 ± 0.023.
As for GAGTGAGCAG, the switch fluorescence ratio worked out at 0.976 ± 0.022.
Then GAGTGAGGGT, with 0.987 ± 0.031; and GAGTGCAATT, with 1.19 ± 0.034.
Then GAGTGCAGGG, with 0.994 ± 0.03.
In the case of GAGTGCAGGT it was 1.01 ± 0.015; in that of GAGTGCCGGG, 1.03 ± 0.016; in that of GAGTGCGACG, 1.08 ± 0.078.
As for GAGTGGACTC, the switch fluorescence ratio was determined as 0.999 ± 0.029.
Then GAGTGGGGA, with 1.03 ± 0.04; and GAGTGGGGTA, with 1 ± 0.011.
As for GAGTGGTCGC, the switch fluorescence ratio stood at 1.002 ± 0.0014.
GAGTGTAAGA: the switch fluorescence ratio was determined as 1 ± 0.034.
GAGTGTCCGG: the switch fluorescence ratio was determined as 0.982 ± 0.025.
For GAGTGTGACT, the switch fluorescence ratio came to 0.97 ± 0.055.
Then GAGTGTGCGC, with 1.02 ± 0.03; and GAGTGTGCGT, with 0.975 ± 0.036; and GAGTGTTCGG, with 0.988 ± 0.042.
Regarding GAGTGTTCTT, the switch fluorescence ratio was 0.977 ± 0.01.
In the case of GAGTGTTTAG it was 1.01 ± 0.016; in that of GAGTTACGGG, 1.01 ± 0.072; in that of GAGTTCAGTA, 0.975 ± 0.034.
Then GAGTTCATAG, with 1 ± 0.013; and GAGTTCGGGA, with 1.02 ± 0.029.
Take GAGTTGAAAA: the switch fluorescence ratio is 0.9868 ± 0.001.
Then GAGTTGGTTT, with 1 ± 0.022.
In the case of GAGTTGTGGG, the switch fluorescence ratio is 0.993 ± 0.014.
In the case of GAGTTGTGTA it was 0.985 ± 0.035; in that of GAGTTGTTAT, 0.973 ± 0.037.
As for GAGTTGTTGT, the switch fluorescence ratio was 0.996 ± 0.018.
Regarding GAGTTTAAAT, the switch fluorescence ratio stood at 1.02 ± 0.022.
In the case of GAGTTTCAGA it was 1.033 ± 0.0033; in that of GAGTTTCAGT, 1.04 ± 0.073.
With GAGTTTGTTA, the switch fluorescence ratio was 1.01 ± 0.07.
As to GAGTTTGTTT, the switch fluorescence ratio stood at 0.99 ± 0.044.
For GAGTTTTGGC, the switch fluorescence ratio was determined as 0.952 ± 0.09.
Regarding GATAAAGTAA, the switch fluorescence ratio amounted to 0.983 ± 0.015.
Then GATAAATGTA, with 0.9808 ± 0.0084; and GATAACGGGG, with 0.972 ± 0.02; and GATAAGGGGA, with 1.03 ± 0.023.
Consider GATAATAGGC, for which the switch fluorescence ratio came out at 1 ± 0.06.
As to GATAATATAA, the switch fluorescence ratio was 1.02 ± 0.026.
Consider GATAATGCGG, for which the switch fluorescence ratio stood at 1.01 ± 0.025.
In the case of GATAATTATG, the switch fluorescence ratio was 0.98 ± 0.019.
In the case of GATAATTCTG, the switch fluorescence ratio was 1 ± 0.024.
On to GATAATTGG, for which the switch fluorescence ratio was found to be 0.988 ± 0.02.
Take GATAATTGTA: the switch fluorescence ratio is 0.9822 ± 0.0033.
For the sequence GATACCGGTG, the switch fluorescence ratio amounted to 1.17 ± 0.25.
In the case of GATACGCGGG it was 0.9947 ± 0.0057; in that of GATAGCTGGG, 1 ± 0.014.
GATAGGATGG: the switch fluorescence ratio came out at 0.9842 ± 0.0027.
Take GATAGGATTG: the switch fluorescence ratio worked out at 0.987 ± 0.022.
In the case of GATAGGCGTG, the switch fluorescence ratio amounted to 1.01 ± 0.029.
In the case of GATAGGGATG it was 1.001 ± 0.0062; in that of GATAGGGTAT, 0.986 ± 0.015.
As for GATAGGTATA, the switch fluorescence ratio is 1.01 ± 0.032.
For GATAGGTTTC, the switch fluorescence ratio was determined as 0.977 ± 0.07.
For the sequence GATAGTCATG, the switch fluorescence ratio worked out at 0.985 ± 0.015.
For the sequence GATAGTTGCG, the switch fluorescence ratio was found to be 1.03 ± 0.06.
GATATACCTT: the switch fluorescence ratio was found to be 1.15 ± 0.015.
GATATAGTAT: the switch fluorescence ratio came to 0.993 ± 0.039.
As to GATATAGTGC, the switch fluorescence ratio amounted to 1.01 ± 0.05.
As to GATATATGAG, the switch fluorescence ratio was 0.997 ± 0.064.
Regarding GATATATTGC, the switch fluorescence ratio came out at 1.03 ± 0.012.
Then GATATCACTG, with 1.02 ± 0.016; and GATATCTGGA, with 1.018 ± 0.0099.
On to GATATGAGGG, for which the switch fluorescence ratio worked out at 1.029 ± 0.0037.
In the case of GATATGCGTC it was 1.04 ± 0.0086; in that of GATATGCTGT, 0.985 ± 0.017.
Consider GATATGGAAG, for which the switch fluorescence ratio is 1.13 ± 0.23.
Then GATATGGATT, with 0.977 ± 0.016.
In the case of GATATGGGAG, the switch fluorescence ratio came to 0.988 ± 0.018.
In the case of GATATGTGTG, the switch fluorescence ratio worked out at 0.991 ± 0.011.
In the case of GATATGTTGA it was 1 ± 0.023.
Turning to GATATTATCA, the switch fluorescence ratio is 1.017 ± 0.0049.
On to GATATTCGGG, for which the switch fluorescence ratio turned out to be 0.988 ± 0.017.
Turning to GATATTGAGC, the switch fluorescence ratio amounted to 1.02 ± 0.026.
In the case of GATATTGTGG it was 0.987 ± 0.025; in that of GATATTTAGG, 1.02 ± 0.038.
Regarding GATATTTCGT, the switch fluorescence ratio came out at 0.9768 ± 0.0034.
Turning to GATATTTTTG, the switch fluorescence ratio was 1 ± 0.024.
Take GATCAAATAT: the switch fluorescence ratio was determined as 1.01 ± 0.0063.
Then GATCACGTTG, with 0.999 ± 0.022; and GATCACTATA, with 1.03 ± 0.054.
As for GATCACTGTA, the switch fluorescence ratio was 1.15 ± 0.036.
As to GATCAGAGGT, the switch fluorescence ratio was determined as 1 ± 0.029.
Turning to GATCATATTT, the switch fluorescence ratio turned out to be 1 ± 0.017.
For GATCATGCTA, the switch fluorescence ratio worked out at 1.02 ± 0.02.
Turning to GATCCAGAAT, the switch fluorescence ratio is 0.9977 ± 0.0074.
In the case of GATCCATACT it was 1.06 ± 0.042; in that of GATCCCAGAG, 1.16 ± 0.082; in that of GATCCCGCGG, 1.049 ± 0.0088.
Consider GATCCGAGTT, for which the switch fluorescence ratio came to 0.99 ± 0.034.
For the sequence GATCCTACGG, the switch fluorescence ratio turned out to be 0.972 ± 0.048.
Then GATCCTGAGG, with 0.968 ± 0.077; and GATCGAAGGG, with 0.9849 ± 0.0079; and GATCGATCGT, with 1 ± 0.027.
Then GATCGCCGTT, with 1.07 ± 0.063; and GATCGGGTTG, with 0.999 ± 0.026.
In the case of GATCGTATAT, the switch fluorescence ratio was determined as 0.9987 ± 0.0084.
GATCTCCCCT: the switch fluorescence ratio came to 1.38 ± 0.053.
Turning to GATCTGGCGG, the switch fluorescence ratio was found to be 1.01 ± 0.034.
Turning to GATCTGGCTT, the switch fluorescence ratio amounted to 0.976 ± 0.031.
Take GATCTTAACA: the switch fluorescence ratio is 1.003 ± 0.0089.
For GATGAAACGT, the switch fluorescence ratio was 1.06 ± 0.045.
Take GATGAATGCT: the switch fluorescence ratio came to 0.9814 ± 0.0034.
As for GATGACAGGT, the switch fluorescence ratio is 1.03 ± 0.041.
In the case of GATGACAGTG it was 0.969 ± 0.083; in that of GATGAGCTGT, 1.03 ± 0.046.
Then GATGAGTCTG, with 0.98 ± 0.044; and GATGAGTTGT, with 0.961 ± 0.021; and GATGATGGGA, with 0.97941 ± 0.00096.
